# Results from US20200071424A1 (SHIONOGI, published 2020).
# Read-outs that look alike come from different tables or passages of the source.
# T1: human [1-305]-mouse chimeric EL (human; mouse, UniProt Q9WVG5 306-500)
# T1 sequence: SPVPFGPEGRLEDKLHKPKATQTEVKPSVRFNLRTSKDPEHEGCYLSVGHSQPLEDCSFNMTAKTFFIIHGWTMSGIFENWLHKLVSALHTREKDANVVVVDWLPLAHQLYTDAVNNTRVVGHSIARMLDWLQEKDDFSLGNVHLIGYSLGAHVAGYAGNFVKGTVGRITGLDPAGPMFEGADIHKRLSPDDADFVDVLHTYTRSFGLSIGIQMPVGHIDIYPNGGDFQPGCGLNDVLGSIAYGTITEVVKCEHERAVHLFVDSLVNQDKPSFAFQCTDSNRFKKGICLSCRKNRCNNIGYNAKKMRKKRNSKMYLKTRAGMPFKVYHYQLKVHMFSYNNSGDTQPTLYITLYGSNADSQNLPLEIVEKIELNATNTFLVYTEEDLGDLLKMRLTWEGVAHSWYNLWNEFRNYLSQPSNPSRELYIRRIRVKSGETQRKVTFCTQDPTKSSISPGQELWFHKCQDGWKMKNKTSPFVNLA
# T2: mouse EL (mouse, UniProt Q9WVG5 21-500)
# T2 construct: Heparin extract
# T2 sequence (looked up): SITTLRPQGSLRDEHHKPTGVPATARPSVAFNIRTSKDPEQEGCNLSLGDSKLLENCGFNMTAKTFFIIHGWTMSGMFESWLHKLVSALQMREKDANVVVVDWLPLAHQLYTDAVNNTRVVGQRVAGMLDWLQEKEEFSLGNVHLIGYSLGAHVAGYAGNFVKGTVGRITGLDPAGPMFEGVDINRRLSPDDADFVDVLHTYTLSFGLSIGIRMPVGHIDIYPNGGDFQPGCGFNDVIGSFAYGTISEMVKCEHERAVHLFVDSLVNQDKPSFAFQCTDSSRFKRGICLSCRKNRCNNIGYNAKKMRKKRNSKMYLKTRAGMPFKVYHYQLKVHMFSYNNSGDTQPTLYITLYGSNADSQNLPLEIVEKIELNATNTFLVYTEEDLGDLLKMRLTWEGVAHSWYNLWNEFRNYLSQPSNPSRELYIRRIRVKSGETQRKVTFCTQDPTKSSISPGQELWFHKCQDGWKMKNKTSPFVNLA
# T3: human [202-500]-mouse chimeric EL (mouse; human, UniProt Q9WVG5 21-201)
# T3 construct: Heparin extract, detected by an anti-C2-tag antibody
# T3 sequence: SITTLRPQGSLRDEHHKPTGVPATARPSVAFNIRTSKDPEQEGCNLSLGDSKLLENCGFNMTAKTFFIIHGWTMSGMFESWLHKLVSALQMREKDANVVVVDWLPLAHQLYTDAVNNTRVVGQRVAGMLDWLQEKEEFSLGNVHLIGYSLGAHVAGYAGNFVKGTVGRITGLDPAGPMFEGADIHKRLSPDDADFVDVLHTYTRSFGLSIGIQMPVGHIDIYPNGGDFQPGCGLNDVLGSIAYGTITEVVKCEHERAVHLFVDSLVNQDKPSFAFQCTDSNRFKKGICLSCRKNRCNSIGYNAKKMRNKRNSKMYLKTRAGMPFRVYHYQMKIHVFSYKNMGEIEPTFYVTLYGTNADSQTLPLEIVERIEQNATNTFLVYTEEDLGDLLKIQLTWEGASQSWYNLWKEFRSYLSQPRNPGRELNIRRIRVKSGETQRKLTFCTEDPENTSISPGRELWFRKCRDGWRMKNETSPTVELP
# T4: human [1-157]-mouse chimeric EL (human; mouse, UniProt Q9WVG5 158-500)
# T4 construct: Heparin extract, detected by an anti-C2-tag antibody
# T4 sequence: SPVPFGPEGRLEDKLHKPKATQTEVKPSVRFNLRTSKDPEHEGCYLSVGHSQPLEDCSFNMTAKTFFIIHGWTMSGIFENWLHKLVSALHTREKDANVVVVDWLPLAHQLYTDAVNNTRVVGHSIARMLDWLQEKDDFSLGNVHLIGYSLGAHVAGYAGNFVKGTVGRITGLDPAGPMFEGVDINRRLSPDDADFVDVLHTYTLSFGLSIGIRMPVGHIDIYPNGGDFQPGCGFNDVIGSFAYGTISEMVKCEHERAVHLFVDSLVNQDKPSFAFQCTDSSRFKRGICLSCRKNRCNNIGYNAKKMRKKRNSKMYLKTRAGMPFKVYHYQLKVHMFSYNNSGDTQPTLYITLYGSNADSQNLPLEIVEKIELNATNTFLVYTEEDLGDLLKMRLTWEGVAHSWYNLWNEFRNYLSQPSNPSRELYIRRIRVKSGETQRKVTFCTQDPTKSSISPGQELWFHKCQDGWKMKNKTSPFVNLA
# Key:
# baboon EL [1] = biological target: baboon EL (baboon); assay: cell-based or functional assay
# cynomolgus monkey EL [2] = biological target: cynomolgus monkey EL (cynomolgus monkey); assay: cell-based or functional assay
# rabbit EL = rabbit EL (rabbit); assay: cell-based or functional assay
# [3] = biological target: human-mouse chimeric EL (construct not specified); assay: cell-based or functional assay
# [4] = biological target: T1, human [1-305]-mouse chimeric EL; assay: cell-based or functional assay
# cynomolgus monkey EL [5] = biological target: cynomolgus monkey EL (cynomolgus monkey); assay: cell-based or functional assay; remark: listed apart in the source
# baboon EL [6] = biological target: T5, baboon EL (baboon); assay: Biacore; EL captured by anti-C2-tag Ab; bivalent fit
# T5 construct: Heparin extract
# Experimental: (§1) The binding affinities of anti-EL antibodies were measured using Biacore. […] Then, anti-EL antibodies were added and the binding affinities were calculated by bivalent fitting of BIAevaluation software.
# cynomolgus monkey EL [7] = biological target: T6, cynomolgus monkey EL (cynomolgus monkey); assay: as above
# T6 construct: Heparin extract; also called cynomolgus EL; Cynomolgus EL
# Experimental: as §1
# [8] = biological target: T1, human [1-305]-mouse chimeric EL; assay: as above
# Experimental: as §1
# baboon EL [9] = biological target: T5, baboon EL; assay: ELISA: antibody captured on anti-mouse IgG-Fc plate, EL heparin extract added, detection with biotin anti-C2-tag antibody and HRP-streptavidin, A450
# Experimental: (§2) Assay buffer containing 15 μl of anti-EL antibody was added to anti-mouse IgG-Fc antibody-immobilized microtiter plate, and incubated for 2 hr. […] After washing the wells three times with 90 μL of washing buffer, 15 μl of assay buffer containing biotin-labeled anti-C2-tag antibody and HRP-labeled Streptavidin were added to the wells and incubated at room temperature for 1 hr. After washing the wells three times with 90 μL of washing buffer, 15 μL of TMB+—Substrate—Chromogen (DAKO) was added and incubated at room temperature for 30 min and then 15 μL of 0.05 M H2SO₄ was added and absorbance at 450 nm was measured (FIG. 3A to 3K).
# cynomolgus monkey EL [10] = biological target: T6, cynomolgus monkey EL; assay: as above
# Experimental: as §2
# mouse EL [11] = biological target: T2, mouse EL; assay: as above
# Experimental: as §2
# [12] = biological target: T1, human [1-305]-mouse chimeric EL; assay: as above
# Experimental: as §2
# [13] = biological target: T3, human [202-500]-mouse chimeric EL; assay: as above
# Experimental: as §2
# baboon EL [14] = biological target: T5, baboon EL; assay: cell-based or functional assay; remark: listed apart in the source
# mouse EL [15] = biological target: T2, mouse EL; assay: cell-based or functional assay
# baboon EL [16] = biological target: T5, baboon EL; assay: Biacore; EL captured by anti-C2-tag Ab; bivalent fit; remark: listed apart in the source
# Experimental: (§3) The binding affinities of anti-EL antibodies were measured using Biacore. […] Then, anti-EL humanized antibodies were added and the binding affinities were calculated by bivalent fitting of BIAevaluation software.
# mouse EL [17] = biological target: T2, mouse EL; assay: as above
# Experimental: as §3
# [18] = biological target: T4, human [1-157]-mouse chimeric EL; assay: ELISA: antibody captured on anti-mouse IgG-Fc plate, EL heparin extract added, detection with biotin anti-C2-tag antibody and HRP-streptavidin, A450
# Experimental: as §2
Binder,Neutralizing activity IC50 (baboon EL [1]) [nM],Neutralizing activity IC50 (cynomolgus monkey EL [2]) [nM],Neutralizing activity IC50 (rabbit EL) [nM],Neutralizing activity IC50 [3] [nM],Kd (baboon EL [6]) [nM],koff (baboon EL [6]) [s⁻¹],kon (baboon EL [6]) [M⁻¹ s⁻¹],Kd (cynomolgus monkey EL [7]) [nM],koff (cynomolgus monkey EL [7]) [s⁻¹],kon (cynomolgus monkey EL [7]) [M⁻¹ s⁻¹],Kd [8] [nM],koff [8] [s⁻¹],kon [8] [M⁻¹ s⁻¹],EC50 (read off the curve) (baboon EL [9]) [ng/mL],EC50 (read off the curve) (cynomolgus monkey EL [10]) [ng/mL],binding result (mouse EL [11]),EC50 (read off the curve) [12] [ng/mL],EC50 (read off the curve) [13] [ng/mL],also measured
"16B3 (antibody, mouse IgG2a, V domains shown, mouse IgG2a from hybridoma; also called 16B3 (mouse mAb)) VH: DVKLVESGGGLVQPGGSLKLSCTASGFTFSGYTMSWVRQTPEKRLELVAEISFARDRAFYPDTVKGRFTISRDNAKNTLYLQMSSLKSEDTAMYYCTRLGGRNHDYWYFDVWGTGTTVTVSS VL: DIVLTQSPTSLAVSPGQRATISCRASESVEYYGTSLMQWYQQKPGQRPQLLIYAASNVESGVPARFSGSGSGTDFSLNIHPVEEDDIAVYFCQQSWKVPFTFGSGTKLEIK",3,1.9,6.3,1.3,3.2,9.8e-05,31000,2.1,8.9e-05,42000,3.7,0.00019,51000,~5,~4,no binding (tested: about 330 ng/mL),~3,~4,Neutralizing activity IC50 [4]: 1.3 nM; Neutralizing activity IC50 (cynomolgus monkey EL [5]): 1.8 nM
"h16F6-S1 (antibody, V domains shown, humanized) VH: QVQLVQSGAEVKKPGASVKVSCKASGYTFTTYWIAWVRQAPGQGLEWMGEILPGSAKTKYNKKFKGRVTMTRDTSTSTVYMELSSLRSEDTAVYYCAVYDYGADYWGQGTTVTVSS VL: DIQMTQSPSSLSASVGDRVTITCKASQDVYTAVAWYQQKPGKSPKLLIYSASYRFTGVPSRFSGSGSGTDFTLTISSLQPEDFATYYCQQHYSIPRTFGGGTKVEIK",–,–,–,–,–,–,–,–,–,–,–,–,–,–,–,–,–,–,Neutralizing activity IC50 (baboon EL [14]): 2.6 nM; Neutralizing activity IC50 (mouse EL [15]): 3.1 nM; Kd (baboon EL [16]): 0.57 nM; koff (baboon EL [16]): 0.00074 s⁻¹; kon (baboon EL [16]): 1.3e+06 M⁻¹ s⁻¹; Kd (mouse EL [17]): 0.16 nM; koff (mouse EL [17]): 0.00019 s⁻¹; kon (mouse EL [17]): 1.2e+06 M⁻¹ s⁻¹

# Continued, in another order:
Neutralizing activity IC50 (baboon EL [1]) [nM],Neutralizing activity IC50 (cynomolgus monkey EL [2]) [nM],Neutralizing activity IC50 (rabbit EL) [nM],Neutralizing activity IC50 [3] [nM],Kd (baboon EL [6]) [nM],koff (baboon EL [6]) [s⁻¹],kon (baboon EL [6]) [M⁻¹ s⁻¹],Kd (cynomolgus monkey EL [7]) [nM],koff (cynomolgus monkey EL [7]) [s⁻¹],kon (cynomolgus monkey EL [7]) [M⁻¹ s⁻¹],Kd [8] [nM],koff [8] [s⁻¹],kon [8] [M⁻¹ s⁻¹],EC50 (read off the curve) (baboon EL [9]) [ng/mL],EC50 (read off the curve) (cynomolgus monkey EL [10]) [ng/mL],binding result (mouse EL [11]),EC50 (read off the curve) [12] [ng/mL],EC50 (read off the curve) [13] [ng/mL],Binder,also measured
2.1,2.5,> 40,1.1,4.7,0.00025,53000,–,–,–,1.1,0.0001,95000,–,~6,–,~6,~8,"16E7 (antibody, mouse IgG1, V domains shown, mouse IgG1 from hybridoma) VH: EVKLVESGGGLVQPGGSLKLSCAASGFTFSSYTMSWVRQTPEKRLELVAEISFTRSRAFYPDTVKGRFTISRDNAKNTLYLQMSSLKSEDTAMYYCARLGGNNYDYWYFDVWGTGTTVTVSS VL: DIVLTQSPTSLAVSLGQRATISCRASESVEYYGTSLMQWYQQKPGQRPKLLIYAASNVESGVPARFSGSGSGTDFSLNIHPVEEDDIAMYFCQQSWKVPFTFGSGTKLEIK",–
3.3,2.4,5.9,1.4,5.8,0.00085,150000,5.9,0.00069,120000,5.4,0.00023,42000,~20,~10,–,~7,~20,"14E1 (antibody, mouse IgG1, V domains shown, mouse IgG1 from hybridoma) VH: QVQLQQSGAELVKPGASVRLSCKASGYTFTKYTIHWVKQRSGQGLEWIGWFYPGSDSIKYNEKFKDKATLTADKSSRTVYMELSRLTSEDSAVYFCARHEEYTNSLAYWGQGTLVTVSA VL: DIQMTQTTSSLSASLGDRVTISCRASQDISNYLNWYQQQPDGTVKLLIYYTSRLHSGVPSRFSGSGSGTDYSLTISNLEQEDIATYFCQQGYTLPWTFGGGTNLEIK",–
2,1.7,5.7,2.4,–,–,–,3.3,0.00018,55000,–,–,–,–,~30,no binding (tested: about 330 ng/mL),~6,–,"19E7 (antibody, mouse IgG2a, V domains shown, mouse IgG2a from hybridoma; also called 19E1(19E7)) VH: QVQLQQPGSVLVRPGASVKLSCKASGYTFTTYWMHWVKQRPGQGLEWIGEIHPYSGNNNNNEKFKGKATLTVDTSSSTAYVDLSRLTSEDSAVYYCARYDSNYVFAYWGQGTLVTVSA VL: QIVLTQSPAIMSASPGEGVTITCSASSSVSYMHWFQQKPGTSPKLWIYSTSNLASGVPARFSGSGSGTSYSLTISRMEAEDAATYYCQQRDSYLTFGSGTKLEVK",binding result [18]: no binding (tested: about 330 ng/mL)
